Experimental data: publication PMC9401124

Target: EsxT (M. abscessus), co-expressed with EsxU in M. smegmatis (Mycobacterium abscessus ATCC 19977)
Test: SEC-MALS; purified EsxU/EsxT complex injected at 10 mg/mL on S200 5/150, 0.8 mL/min, 20 mM Tris pH 8.0, 300 mM NaCl, 5% glycerol

Work on “EsxU (M. abscessus), co-expressed with EsxT in M. smegmatis (natural protein)” yielded a stoichiometry N of 1.
